System: tet operator sequence
Assay: β-galactosidase activity of a tetracycline-regulated promoter in transformed E. coli with revTetR, in the presence and absence of anhydrotetracycline (atc)
Format: cell-based, Escherichia coli
Conditions: for β-Galactosidase Activity, Cultured Without ATC: RevTetR isolate cultured in the absence of anhydrotetracycline (ATC); for β-Galactosidase Activity, Cultured With ATC: RevTetR isolate cultured in the presence of anhydrotetracycline (ATC)
Method in brief: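 TetR(BD) chimera mutants (TetR(B) residues 1–50, TetR(D) 51–208) expressed in E. coli regulating a tet operator-controlled lacZ. β-Galactosidase measured in Miller units at 28 °C and 37 °C with and without anhydrotetracycline; reported as percent of maximal expression without Tet repressor.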

Molecule	β-Galactosidase Activity, Cultured Without ATC	β-Galactosidase Activity, Cultured With ATC
TetRrevAtc4-53: revTetR(BD) D53F L55M I59S H63Q (protein, Modified tetracycline repressor, revTetR(BD) D53F L55M I59S H63Q) MSRLDKSKVINSALELLNEVGIEGLTTRKLAQKLGVEQPTLYWHVKNKRALLFAMAVESLARQHDYSLPAAGESWQSFLRNNAMSFRRALLRYRDGAKVHLGTRPDEKQYDTVETQLRFMTENGFSLRDGLYAISAVSHFTLGAVLEQQEHTAALTDRPAAPDENLPPLLREALQIMDSDDGEQAFLHGLESLIRGFEVQLTALLQIV	87.055	6.945
TetRrevAtc4-6: revTetR(BD) D53Y L55L A56P R62L (protein, Modified tetracycline repressor, revTetR(BD) D53Y L55L A56P R62L) MSRLDKSKVINSALELLNEVGIEGLTTRKLAQKLGVEQPTLYWHVKNKRALLYALPVEILALHHDYSLPAAGESWQSFLRNNAMSFRRALLRYRDGAKVHLGTRPDEKQYDTVETQLRFMTENGFSLRDGLYAISAVSHFTLGAVLEQQEHTAALTDRPAAPDENLPPLLREALQIMDSDDGEQAFLHGLESLIRGFEVQLTALLQIV	108.478	23.873
TetRrevAtc4-61: revTetR(BD) L51L A56V I59H R62L (protein, Modified tetracycline repressor, revTetR(BD) L51L A56V I59H R62L) MSRLDKSKVINSALELLNEVGIEGLTTRKLAQKLGVEQPTLYWHVKNKRALLDALVVEHLALHHDYSLPAAGESWQSFLRNNAMSFRRALLRYRDGAKVHLGTRPDEKQYDTVETQLRFMTENGFSLRDGLYAISAVSHFTLGAVLEQQEHTAALTDRPAAPDENLPPLLREALQIMDSDDGEQAFLHGLESLIRGFEVQLTALLQIV	88.785	23.831
TetRrevAtc4-67: revTetR(BD) K48K D53Y A56G E58G (protein, Modified tetracycline repressor, revTetR(BD) K48K D53Y A56G E58G) MSRLDKSKVINSALELLNEVGIEGLTTRKLAQKLGVEQPTLYWHVKNKRALLYALGVGILARHHDYSLPAAGESWQSFLRNNAMSFRRALLRYRDGAKVHLGTRPDEKQYDTVETQLRFMTENGFSLRDGLYAISAVSHFTLGAVLEQQEHTAALTDRPAAPDENLPPLLREALQIMDSDDGEQAFLHGLESLIRGFEVQLTALLQIV	61.815	12.616
TetRrevAtc4-7: revTetR(BD) I59R L55L A61E H64N (protein, Modified tetracycline repressor, revTetR(BD) I59R L55L A61E H64N) MSRLDKSKVINSALELLNEVGIEGLTTRKLAQKLGVEQPTLYWHVKNKRALLDALAVERLERHNDYSLPAAGESWQSFLRNNAMSFRRALLRYRDGAKVHLGTRPDEKQYDTVETQLRFMTENGFSLRDGLYAISAVSHFTLGAVLEQQEHTAALTDRPAAPDENLPPLLREALQIMDSDDGEQAFLHGLESLIRGFEVQLTALLQIV	84.416	27.649
TetRrevAtc4-70: revTetR(BD) D53A A61P (protein, Modified tetracycline repressor, revTetR(BD) D53A A61P) MSRLDKSKVINSALELLNEVGIEGLTTRKLAQKLGVEQPTLYWHVKNKRALLAALAVEILPRHHDYSLPAAGESWQSFLRNNAMSFRRALLRYRDGAKVHLGTRPDEKQYDTVETQLRFMTENGFSLRDGLYAISAVSHFTLGAVLEQQEHTAALTDRPAAPDENLPPLLREALQIMDSDDGEQAFLHGLESLIRGFEVQLTALLQIV	16.119	11.125
TetRrevAtc4-71: revTetR(BD) D53T L55M 56P A61S (protein, Modified tetracycline repressor, revTetR(BD) D53T L55M 56P A61S) MSRLDKSKVINSALELLNEVGIEGLTTRKLAQKLGVEQPTLYWHVKNKRALLTAMPVEILSRHHDYSLPAAGESWQSFLRNNAMSFRRALLRYRDGAKVHLGTRPDEKQYDTVETQLRFMTENGFSLRDGLYAISAVSHFTLGAVLEQQEHTAALTDRPAAPDENLPPLLREALQIMDSDDGEQAFLHGLESLIRGFEVQLTALLQIV	70.197	7.372
TetRrevAtc4-9: revTetR(BD) L52M A56P V57L E58V L60L H188Y (protein, Modified tetracycline repressor, revTetR(BD) L52M A56P V57L E58V L60L H188Y) MSRLDKSKVINSALELLNEVGIEGLTTRKLAQKLGVEQPTLYWHVKNKRALMDAMPLVILARHHDYSLPAAGESWQSFLRNNAMSFRRALLRYRDGAKVHLGTRPDEKQYDTVETQLRFMTENGFSLRDGLYAISAVSHFTLGAVLEQQEHTAALTDRPAAPDENLPPLLREALQIMDSDDGEQAFLYGLESLIRGFEVQLTALLQIV	97.1039	1.8695
TetRrevAtc4-9b: revTetR(BD) A56P V57L E58V L60L (protein, Modified tetracycline repressor, revTetR(BD) A56P V57L E58V L60L) MSRLDKSKVINSALELLNEVGIEGLTTRKLAQKLGVEQPTLYWHVKNKRALLDALPLVILARHHDYSLPAAGESWQSFLRNNAMSFRRALLRYRDGAKVHLGTRPDEKQYDTVETQLRFMTENGFSLRDGLYAISAVSHFTLGAVLEQQEHTAALTDRPAAPDENLPPLLREALQIMDSDDGEQAFLHGLESLIRGFEVQLTALLQIV	107.982	1.0594
TetRrevDox4-1: revTetR(BD) D53E A54S A61P (protein, Modified tetracycline repressor, revTetR(BD) D53E A54S A61P) MSRLDKSKVINSALELLNEVGIEGLTTRKLAQKLGVEQPTLYWHVKNKRALLESLAVEILPRHHDYSLPAAGESWQSFLRNNAMSFRRALLRYRDGAKVHLGTRPDEKQYDTVETQLRFMTENGFSLRDGLYAISAVSHFTLGAVLEQQEHTAALTDRPAAPDENLPPLLREALQIMDSDDGEQAFLHGLESLIRGFEVQLTALLQIV	36.03	5.627
TetRrevDox4-2: revTetR(BD) D53E A54S I59M A61P (protein, Modified tetracycline repressor, revTetR(BD) D53E A54S I59M A61P) MSRLDKSKVINSALELLNEVGIEGLTTRKLAQKLGVEQPTLYWHVKNKRALLESLAVEMLPRHHDYSLPAAGESWQSFLRNNAMSFRRALLRYRDGAKVHLGTRPDEKQYDTVETQLRFMTENGFSLRDGLYAISAVSHFTLGAVLEQQEHTAALTDRPAAPDENLPPLLREALQIMDSDDGEQAFLHGLESLIRGFEVQLTALLQIV	58.776	9.547
TetRrev04-1: revTetR(BD) G96E K98T (protein, Modified tetracycline repressor, revTetR(BD) G96E K98T) MSRLDKSKVINSALELLNEVGIEGLTTRKLAQKLGVEQPTLYWHVKNKRALLDALAVEILARHHDYSLPAAGESWQSFLRNNAMSFRRALLRYRDEATVHLGTRPDEKQYDTVETQLRFMTENGFSLRDGLYAISAVSHFTLGAVLEQQEHTAALTDRPAAPDENLPPLLREALQIMDSDDGEQAFLHGLESLIRGFEVQLTALLQIV	102.092	44.145
TetRrev04-4: revTetR(BD) G96E V113A (protein, Modified tetracycline repressor, revTetR(BD) G96E V113A) MSRLDKSKVINSALELLNEVGIEGLTTRKLAQKLGVEQPTLYWHVKNKRALLDALAVEILARHHDYSLPAAGESWQSFLRNNAMSFRRALLRYRDEAKVHLGTRPDEKQYDTAETQLRFMTENGFSLRDGLYAISAVSHFTLGAVLEQQEHTAALTDRPAAPDENLPPLLREALQIMDSDDGEQAFLHGLESLIRGFEVQLTALLQIV	99.655	19.878
TetRrev6-13: revTetR(BD) G96R L101I (protein, Modified tetracycline repressor, revTetR(BD) G96R L101I) MSRLDKSKVINSALELLNEVGIEGLTTRKLAQKLGVEQPTLYWHVKNKRALLDALAVEILARHHDYSLPAAGESWQSFLRNNAMSFRRALLRYRDRAKVHIGTRPDEKQYDTVETQLRFMTENGFSLRDGLYAISAVSHFTLGAVLEQQEHTAALTDRPAAPDENLPPLLREALQIMDSDDGEQAFLHGLESLIRGFEVQLTALLQIV	15.7835	2.5043
TetRrev6-17: revTetR(BD) R94G G96W (protein, Modified tetracycline repressor, revTetR(BD) R94G G96W) MSRLDKSKVINSALELLNEVGIEGLTTRKLAQKLGVEQPTLYWHVKNKRALLDALAVEILARHHDYSLPAAGESWQSFLRNNAMSFRRALLRYGDWAKVHLGTRPDEKQYDTVETQLRFMTENGFSLRDGLYAISAVSHFTLGAVLEQQEHTAALTDRPAAPDENLPPLLREALQIMDSDDGEQAFLHGLESLIRGFEVQLTALLQIV	56.5081	12.5
TetRrev6-2: revTetR(BD) D95G G96R H100L (protein, Modified tetracycline repressor, revTetR(BD) D95G G96R H100L) MSRLDKSKVINSALELLNEVGIEGLTTRKLAQKLGVEQPTLYWHVKNKRALLDALAVEILARHHDYSLPAAGESWQSFLRNNAMSFRRALLRYRGRAKVLLGTRPDEKQYDTVETQLRFMTENGFSLRDGLYAISAVSHFTLGAVLEQQEHTAALTDRPAAPDENLPPLLREALQIMDSDDGEQAFLHGLESLIRGFEVQLTALLQIV	95.487	18.3
